Test results published in patent US20240117018A1.

Tests used:
Test in all cases: cell-based or functional assay
[1] = target: HIV-1 Env of pseudovirus 0815.v3.c3 (HIV-1)
[2] = target: HIV-1 Env of pseudovirus 231965.c01 (HIV-1)
[3] = target: HIV-1 Env of pseudovirus 231966.c02 (HIV-1)
[4] = target: HIV-1 Env of pseudovirus 235-47 (HIV-1)
[5] = target: HIV-1 Env of pseudovirus 263-8 (HIV-1)
[6] = target: HIV-1 Env of pseudovirus 3016.v5.c45 (HIV-1)
[7] = target: HIV-1 Env of pseudovirus 3103.v3.c10 (HIV-1)
[8] = target: HIV-1 Env of pseudovirus 3301.v1.c24 (HIV-1)
[9] = target: HIV-1 Env of pseudovirus 3817.v2.c59 (HIV-1)
[10] = target: HIV-1 Env of pseudovirus 6041.v3.c23 (HIV-1)
[11] = target: HIV-1 Env of pseudovirus 620345.c01 (HIV-1)
[12] = target: HIV-1 Env of pseudovirus 6480.v4.c25 (HIV-1)
[13] = target: HIV-1 Env of pseudovirus 6540.v4.c1 (HIV-1)
[14] = target: HIV-1 Env of pseudovirus 6545.v4.c1 (HIV-1)
[15] = target: HIV-1 Env of pseudovirus 6811.v7.c18 (HIV-1)
[16] = target: HIV-1 Env of pseudovirus 6952.v1.c20 (HIV-1)
[17] = target: HIV-1 Env of pseudovirus 9004SS_A3_4 (HIV-1)
[18] = target: HIV-1 Env of pseudovirus 928-28 (HIV-1)
[19] = target: HIV-1 Env of pseudovirus A07412M1.vrc12 (HIV-1)
[20] = target: HIV-1 Env of pseudovirus BJOX015000.11.5 (HIV-1)
[21] = target: HIV-1 Env of pseudovirus BJOX025000.01.1 (HIV-1)
[22] = target: HIV-1 Env of pseudovirus BJOX028000.10.3 (HIV-1)
[23] = target: HIV-1 Env of pseudovirus C1080.c03 (HIV-1)
[24] = target: HIV-1 Env of pseudovirus C3347.c11 (HIV-1)
[25] = target: HIV-1 Env of pseudovirus P0402_c2_11 (HIV-1)
[26] = target: HIV-1 Env of pseudovirus R1166.c01 (HIV-1)
[27] = target: HIV-1 Env of pseudovirus R2184.c04 (HIV-1)
[28] = target: HIV-1 Env of pseudovirus R3265.c06 (HIV-1)
[29] = target: HIV-1 Env of pseudovirus T251-18 (HIV-1)
[30] = target: HIV-1 Env of pseudovirus T257-31 (HIV-1)
[31] = target: HIV-1 Env of pseudovirus T278-50 (HIV-1)
[32] = target: HIV-1 Env of pseudovirus X1193_c1 (HIV-1)
[33] = target: HIV-1 Env of pseudovirus X1254_c3 (HIV-1)
[34] = target: HIV-1 Env of pseudovirus X1632_S2_B10 (HIV-1)
[35] = target: HIV-1 Env of pseudovirus X2088_c9 (HIV-1)
[36] = target: HIV-1 Env of pseudovirus X2131_C1_B5 (HIV-1)

N49P19 (antibody)
neutralization IC50 [1]: 0.176 µg/mL
neutralization IC80 [1]: 0.743 µg/mL
neutralization MPI [1]: 100
neutralization IC50 [2]: > 50 µg/mL
neutralization IC80 [2]: > 50 µg/mL
neutralization MPI [2]: 22
neutralization IC50 [3]: 0.653 µg/mL
neutralization IC80 [3]: 4.55 µg/mL
neutralization MPI [3]: 100
neutralization IC50 [4]: 0.44 µg/mL
neutralization IC80 [4]: 3.23 µg/mL
neutralization MPI [4]: 89
neutralization IC50 [5]: 0.344 µg/mL
neutralization IC80 [5]: 1.51 µg/mL
neutralization MPI [5]: 99
neutralization IC50 [6]: > 50 µg/mL
neutralization IC80 [6]: > 50 µg/mL
neutralization MPI [6]: 9
neutralization IC50 [7]: > 50 µg/mL
neutralization IC80 [7]: > 50 µg/mL
neutralization MPI [7]: 0
neutralization IC50 [8]: 0.302 µg/mL
neutralization IC80 [8]: 1.42 µg/mL
neutralization MPI [8]: 98
neutralization IC50 [9]: > 50 µg/mL
neutralization IC80 [9]: > 50 µg/mL
neutralization MPI [9]: 26
neutralization IC50 [10]: > 50 µg/mL
neutralization IC80 [10]: > 50 µg/mL
neutralization MPI [10]: 32
neutralization IC50 [11]: > 50 µg/mL
neutralization IC80 [11]: > 50 µg/mL
neutralization MPI [11]: 0
neutralization IC50 [12]: 3.04 µg/mL
neutralization IC80 [12]: 28.2 µg/mL
neutralization MPI [12]: 87
neutralization IC50 [13]: 11.2 µg/mL
neutralization IC80 [13]: > 50 µg/mL
neutralization MPI [13]: 63
neutralization IC50 [14]: > 50 µg/mL
neutralization IC80 [14]: > 50 µg/mL
neutralization MPI [14]: 2
neutralization IC50 [15]: 1.3 µg/mL
neutralization IC80 [15]: 4.71 µg/mL
neutralization MPI [15]: 97
neutralization IC50 [16]: > 50 µg/mL
neutralization IC80 [16]: > 50 µg/mL
neutralization MPI [16]: 0
neutralization IC50 [17]: 0.661 µg/mL
neutralization IC80 [17]: 3.09 µg/mL
neutralization MPI [17]: 100
neutralization IC50 [18]: 2.73 µg/mL
neutralization IC80 [18]: 9.63 µg/mL
neutralization MPI [18]: 97
neutralization IC50 [19]: 3.89 µg/mL
neutralization IC80 [19]: 48.8 µg/mL
neutralization MPI [19]: 80
neutralization IC50 [20]: 0.756 µg/mL
neutralization IC80 [20]: 3.17 µg/mL
neutralization MPI [20]: 99
neutralization IC50 [21]: > 50 µg/mL
neutralization IC80 [21]: > 50 µg/mL
neutralization MPI [21]: 24
neutralization IC50 [22]: 7 µg/mL
neutralization IC80 [22]: > 50 µg/mL
neutralization MPI [22]: 80
neutralization IC50 [23]: 0.682 µg/mL
neutralization IC80 [23]: 3.05 µg/mL
neutralization MPI [23]: 100
neutralization IC50 [24]: 3.94 µg/mL
neutralization IC80 [24]: 25.7 µg/mL
neutralization MPI [24]: 87
neutralization IC50 [25]: 0.448 µg/mL
neutralization IC80 [25]: 2.63 µg/mL
neutralization MPI [25]: 100
neutralization IC50 [26]: 0.629 µg/mL
neutralization IC80 [26]: 2.69 µg/mL
neutralization MPI [26]: 100
neutralization IC50 [27]: 0.132 µg/mL
neutralization IC80 [27]: 0.445 µg/mL
neutralization MPI [27]: 100
neutralization IC50 [28]: 0.634 µg/mL
neutralization IC80 [28]: 2.73 µg/mL
neutralization MPI [28]: 100
neutralization IC50 [29]: 0.938 µg/mL
neutralization IC80 [29]: 4.2 µg/mL
neutralization MPI [29]: 100
neutralization IC50 [30]: 0.661 µg/mL
neutralization IC80 [30]: 3 µg/mL
neutralization MPI [30]: 100
neutralization IC50 [31]: > 50 µg/mL
neutralization IC80 [31]: > 50 µg/mL
neutralization MPI [31]: 35
neutralization IC50 [32]: 0.54 µg/mL
neutralization IC80 [32]: 3.15 µg/mL
neutralization MPI [32]: 99
neutralization IC50 [33]: > 50 µg/mL
neutralization IC80 [33]: > 50 µg/mL
neutralization MPI [33]: 48
neutralization IC50 [34]: > 50 µg/mL
neutralization IC80 [34]: > 50 µg/mL
neutralization MPI [34]: 14
neutralization IC50 [35]: 1.4 µg/mL
neutralization IC80 [35]: 3.76 µg/mL
neutralization MPI [35]: 99
neutralization IC50 [36]: 2.52 µg/mL
neutralization IC80 [36]: 14.4 µg/mL
neutralization MPI [36]: 91
